Experimental data published in patent CN117088968A.

Biological target: 2019-nCoV N蛋白抗原 (2019-nCoV (新型冠状病毒)) (UniProt P0DTC9)
Experiment: AMC sensor, antibody captured at 10 μg/mL, N protein antigen in serial dilution in PBST

Kd: 0.0243 µM | koff: 0.00011 s⁻¹ | kon: 4520 M⁻¹ s⁻¹
Substance: 对照 (antibody)
